Reference: publication PMC9820991, “Elucidating the Interaction between Pyridoxine 5′-Phosphate Oxidase and Dopa Decarboxylase: Activation of B6-Dependent Enzyme” (International Journal of Molecular Sciences, 2022)

T1: human dopa decarboxylase, apo form (human, UniProt P20711 1-480)
T1 construct: same chain as m2 without PLP; Made from holoDDC by removal of the cofactor; also called apoDDC; source: E. coli BL21(DE3)pLysS, purified (Histrap Ni2+ column); PLP removed with 5 mM hydroxylamine and dialysis; not shown: His tag (from the Histrap column)
T1 sequence (looked up): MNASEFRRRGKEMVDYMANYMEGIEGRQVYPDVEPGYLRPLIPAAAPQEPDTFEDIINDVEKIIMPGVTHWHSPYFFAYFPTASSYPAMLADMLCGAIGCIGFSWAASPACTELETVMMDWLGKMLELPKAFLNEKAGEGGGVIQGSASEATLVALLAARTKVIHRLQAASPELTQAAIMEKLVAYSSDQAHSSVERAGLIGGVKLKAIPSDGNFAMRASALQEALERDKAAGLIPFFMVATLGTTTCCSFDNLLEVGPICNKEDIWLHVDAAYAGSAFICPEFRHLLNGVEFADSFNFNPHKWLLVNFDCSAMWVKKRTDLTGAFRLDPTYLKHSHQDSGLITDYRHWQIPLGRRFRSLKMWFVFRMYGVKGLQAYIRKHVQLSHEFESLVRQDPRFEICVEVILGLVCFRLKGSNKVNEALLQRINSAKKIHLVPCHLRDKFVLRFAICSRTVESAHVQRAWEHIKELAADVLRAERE

T2: human dopa decarboxylase, holo form (human, UniProt P20711 1-480, PLP as internal aldimine on Lys303)
T2 construct: also called holoDDC; DDC; source: E. coli BL21(DE3)pLysS, purified (Histrap Ni2+ column, dialysis against PLP); not shown: His tag (from the Histrap column)
T2 sequence (looked up): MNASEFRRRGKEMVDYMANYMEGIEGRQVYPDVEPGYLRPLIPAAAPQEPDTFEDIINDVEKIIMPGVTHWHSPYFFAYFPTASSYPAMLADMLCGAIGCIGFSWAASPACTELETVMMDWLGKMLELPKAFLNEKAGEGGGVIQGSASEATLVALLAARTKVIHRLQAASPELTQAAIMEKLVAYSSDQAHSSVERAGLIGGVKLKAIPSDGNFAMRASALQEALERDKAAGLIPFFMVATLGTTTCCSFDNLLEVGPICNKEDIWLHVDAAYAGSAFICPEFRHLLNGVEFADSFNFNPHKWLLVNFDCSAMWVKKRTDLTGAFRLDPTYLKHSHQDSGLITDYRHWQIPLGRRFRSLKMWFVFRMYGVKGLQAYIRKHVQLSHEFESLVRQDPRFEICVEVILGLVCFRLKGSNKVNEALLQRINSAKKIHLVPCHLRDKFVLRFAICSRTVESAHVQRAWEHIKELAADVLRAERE

T3: serine hydroxymethyltransferase (rabbit cytoplasmic), holo form (rabbit, UniProt P07511 1-484, PLP cofactor (holo form), residue not stated)
T3 construct: rabbit cytoplasmic serine hydroxymethyltransferase, recombinant, holo form; Positive control of the SPR experiment; also called holoSHMT; SHMT
T3 sequence (looked up): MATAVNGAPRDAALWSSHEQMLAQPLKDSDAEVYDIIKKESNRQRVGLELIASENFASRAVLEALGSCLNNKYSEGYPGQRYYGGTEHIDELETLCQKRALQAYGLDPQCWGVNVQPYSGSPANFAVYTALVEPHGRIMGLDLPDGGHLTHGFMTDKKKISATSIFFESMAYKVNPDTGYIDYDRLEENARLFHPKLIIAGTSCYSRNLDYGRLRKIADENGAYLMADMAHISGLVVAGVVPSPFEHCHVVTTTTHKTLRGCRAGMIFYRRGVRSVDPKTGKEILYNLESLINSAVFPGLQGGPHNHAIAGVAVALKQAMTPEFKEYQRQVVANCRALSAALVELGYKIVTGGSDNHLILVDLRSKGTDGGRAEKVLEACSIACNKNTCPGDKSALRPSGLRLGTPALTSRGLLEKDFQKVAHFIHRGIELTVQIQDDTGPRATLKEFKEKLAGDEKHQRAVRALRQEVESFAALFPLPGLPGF


Tests used:
AAT [1] = target: AAT (UniProt P17174); assay: fluorescence spectroscopy; settings: cited from earlier work
Sequence of AAT (P17174 2-413): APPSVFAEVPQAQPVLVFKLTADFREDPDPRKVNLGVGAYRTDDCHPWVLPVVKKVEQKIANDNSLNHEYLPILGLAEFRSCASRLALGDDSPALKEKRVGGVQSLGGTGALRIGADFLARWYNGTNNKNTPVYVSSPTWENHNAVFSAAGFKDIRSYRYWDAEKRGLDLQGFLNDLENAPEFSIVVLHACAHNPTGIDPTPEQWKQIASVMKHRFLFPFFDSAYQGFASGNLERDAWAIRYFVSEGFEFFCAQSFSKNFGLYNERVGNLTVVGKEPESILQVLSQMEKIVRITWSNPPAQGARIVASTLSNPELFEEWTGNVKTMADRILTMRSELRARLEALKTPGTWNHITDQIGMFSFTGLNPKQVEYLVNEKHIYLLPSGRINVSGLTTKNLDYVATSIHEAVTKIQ

GAD = GAD (UniProt Q99259); assay: FP/SPR; settings: cited from earlier work
Sequence of GAD (Q99259 whole entry): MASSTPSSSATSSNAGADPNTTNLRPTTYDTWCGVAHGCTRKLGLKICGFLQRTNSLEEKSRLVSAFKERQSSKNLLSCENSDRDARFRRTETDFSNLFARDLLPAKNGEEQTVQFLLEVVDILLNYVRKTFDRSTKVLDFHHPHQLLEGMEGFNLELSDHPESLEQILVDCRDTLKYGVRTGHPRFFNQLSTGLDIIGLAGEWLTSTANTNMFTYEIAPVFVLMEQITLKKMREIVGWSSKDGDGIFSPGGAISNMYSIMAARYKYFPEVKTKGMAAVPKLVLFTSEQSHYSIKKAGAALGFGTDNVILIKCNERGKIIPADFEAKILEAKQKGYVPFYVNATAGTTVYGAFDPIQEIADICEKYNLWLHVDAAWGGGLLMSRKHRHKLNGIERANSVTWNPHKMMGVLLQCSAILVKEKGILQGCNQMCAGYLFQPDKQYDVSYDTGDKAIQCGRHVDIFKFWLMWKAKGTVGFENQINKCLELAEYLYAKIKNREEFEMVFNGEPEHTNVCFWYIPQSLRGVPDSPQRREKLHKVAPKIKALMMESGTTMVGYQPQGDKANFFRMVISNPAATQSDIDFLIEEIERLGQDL

AAT [2] = target: AAT (UniProt P17174); assay: FP/SPR; settings: cited from earlier work
[3] = target: T1, human dopa decarboxylase, apo form; assay: ITC; PNPO titrated into holoDDC or apoDDC in the cell; MICROCAL PEAQ-ITC, 25 °C, 19 injections of 2 µL; 50 mM potassium phosphate pH 7.4, 150 mM NaCl; at least triplicate; settings: both partners purified
[4] = target: T2, human dopa decarboxylase, holo form; assay: as above; settings: both partners purified
[5] = target: T3, serine hydroxymethyltransferase (rabbit …); assay: SPR; Biacore T200, 25 °C; apoDDC, holoDDC and holoSHMT immobilised on a CM5 chip by amine coupling; analytes PNPO and albumin 100 to 1.5625 µM in PBS-P (10 mM phosphate pH 7.4, 140 mM NaCl, 3 mM KCl, 0.05% P20), 50 µL/min; settings: both partners purified
[6] = target: T2, human dopa decarboxylase, holo form; assay: as above; settings: both partners purified

Sequence of PLK (O00764 whole entry): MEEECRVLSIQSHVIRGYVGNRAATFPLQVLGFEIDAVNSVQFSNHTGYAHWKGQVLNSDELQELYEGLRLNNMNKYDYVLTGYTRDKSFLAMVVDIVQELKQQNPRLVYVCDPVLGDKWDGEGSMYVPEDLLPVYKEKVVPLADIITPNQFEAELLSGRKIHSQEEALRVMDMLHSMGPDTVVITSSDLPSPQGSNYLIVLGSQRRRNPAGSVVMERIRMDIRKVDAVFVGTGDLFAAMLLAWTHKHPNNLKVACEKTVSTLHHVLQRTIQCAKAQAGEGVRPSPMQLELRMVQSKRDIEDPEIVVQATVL

Row | Kd [3] [nM] | dH [3] [kcal/mol] | stoichiometry N [3] | Kd [4] [nM] | dH [4] [kcal/mol] | stoichiometry N [4] | Kd [5] [nM] | Kd [6] [nM] | Molecule | Kd (AAT [1]) [nM] | Kd (GAD) [nM] | Kd (AAT [2]) [nM]
1 |  |  |  |  |  |  |  |  | PLK (from UniProt O00764) | 3000 | 2700 | 4900
2 | 920 ± 70 | -3.03 ± 0.1 | 0.52 ± 0.01 | 2590 ± 110 | -2.33 ± 0.1 | 0.94 ± 0.04 | 15400 | 3700 | human pyridoxine 5′-phosphate oxidase (enzyme, UniProt Q9NVS9 1-261, looked up, human pyridoxine 5′-phosphate oxidase (PNPO), recombinant; FMN-dependent enzyme; FMN was present during lysis and the first dialysis; also called PNPO; hPNPO; source: E. coli, purified (Histrap Ni2+ column, dialysis)) MTCWLRGVTATFGRPAEWPGYLSHLCGRSAAMDLGPMRKSYRGDREAFEETHLTSLDPVKQFAAWFEEAVQCPDIGEANAMCLATCTRDGKPSARMLLLKGFGKDGFRFFTNFESRKGKELDSNPFASLVFYWEPLNRQVRVEGPVKKLPEEEAECYFHSRPKSSQIGAVVSHQSSVIPDREYLRKKNEELEQLYQDQEVPKPKSWGGYVLYPQVMEFWQGQTNRLHDRIVFRRGLPTGDSPLGPMTHRGEEDWLYERLAP |  |  | 
